# Data reported in the domain aggregation screens of Martell et al. (2025).
# Experiment: soluble fraction after stress (log2 fold change); higher = more stays soluble; pooled small domains, quantitative proteomics
# Conditions: stress: pH 4
# How it was run: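 Values are on a log2 scale, where higher means more of the domain stayed soluble after pH 4 stress. They are fold changes in the soluble amount of each domain from pooled custom libraries, measured by high-throughput quantitative proteomics. The fold change is taken to reflect aggregation propensity.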
row,Sequence,soluble fraction (log2)
1,HMISENFVEAKILLTEDNRPKSLEILKDIIRQHDKVYSPLSLFLILDEDLEENKEIILEYFDLVLS,-1.38
2,HMIDIIEYIISEESKGLRADQGIALQNPQYSRSLIQKWIKKGSVLVNNKIIRTKEILLEGDKISITPEENI,-2.29
3,HMSPDTREAILAAARTAFARDGYQTSLRGIARDAGVDPALVHHYFPDRATLFAKAVIESTAG,-0.047
4,HMAEQDILQSVYPHIGGQDNVSRTISRNGTLYLMLKDASAVDLKAVKQVPGIADAALERGRLTLQLEE,-0.0819
5,HMTETPDDLLAALKKNKKAQATFDAFSPSNKKEYILWITEAKTEATRTKRLETAIEWMSEGKARNW,0.0435
6,HMAKSPYDVLGLKEDAPFDEVKKRYRELVKKYHPDILMGRGESEEMIEKSTRKLQEINEAYETIKQRA,-0.0402
7,HMLPLPRFASLDSSEANLRAGPGKDYPILWVYQRKGLPVEIIQEFDTWRRIRDRDGTVGWVQQNLL,-0.568
8,HMSQSMEVLYTDLTDKDAAAIVEKLEEEKIPYQLEDQGTTILVPPGVKYTTRLKLAAEDLPKG,0.178
9,HMENEIPVPELVGMSEADAAAKLASLGLERDTQREATADEESVGKVLRQEPTPGEYVDEGHKVTIWVGE,0.22
10,HMPERLTYVHPDGAEPMRADKALAAFLSGRISRSRLLGSFSAGKVMAGGKPVEKKLLLRAGDALEVELPEP,0.0894
11,HMTSNSLNLKDEISAFLTKNAGISYSAERIAHALNMDNADQFTPIIQTLAQLEREKKVRVTDKGEFEAVIK,0.229
12,HMVQQTEEDVIRDMYVEGKIFTIGEEVTDTYTGVTGKIIRRGTNYVTFMSEDGETYKKWLYEIELA,-1.82
13,HMGGPRDVPYSTFLIEVEKGQVAEVTIQDHKITGTYKNSNEPFITNAPDDPDLVSRLIKYGVGVQAKPPE,0.0182
14,HMVKLSVGDIVQFAGGPHYVSSSAAKPASSPTAGPAKVTMIYQGAKHPYHIVHTTSASTVWGWVDADKVVK,-0.208
15,HMSDSISLTLNGDLRRFRAHATIADLVRDIGLDPVKVAVERNLEIVSRSTLEDVVLADGDRLEIVHFV,-2.67
16,HMIDKIRYPELIMKLAHQQGGTIKRRDVEQLLHLQTKQAYRELSKLVDAGELVSVGRGPGAHYEVS,-0.0885
17,HMSSIHQDAKQQLHEYIRTYIQPLMRAGKQVTVWDIIGHVTIRKPKLVQKIGTQQLINMVQDLLE,-0.302
18,HMPAAFALLTDREREIAALIAQRLTNREIAEKLYLSEGSVKQYVNQLYAKLGIEGDTRTKRRRLAEQAK,0.12
19,HMEVENAQLLARLTPQEHRVFERVVAGLSNREIGSEMDISIKTVEVHRARVMRKLEANSVAELVRFHIHN,-0.811
20,HMTTYTGVVTGSGVNVRSGAGTSYPVVGSKTMGDVVTITETVSADGMIWGKIDIGWISMNYVRM,-0.434
21,HMKKVTMQDIANILNISRVTVWKVLNNQPGVSKQLRDQILLTAKETGYLKPGQEAEAYLEENNIYFEG,-0.344
22,HMTAEASELRERIRAAMATLPPAQQRVIELAYFEGLTQREIAALLNEPLGTIKTRMRLGMRKLKDVL,0.367
23,HMDDILAYEIEDKEDLENLSLGKSIGINLNKLIKPTLNSFDNSLLFLSKKGNIISYGKLNGDLFKPKKVL,-0.454
24,HMQTGYHVRITASTLNVRRDHSASSAVATQVRRGEVYTIVDEYNNGGTLWGKLKSGAGWIALKYTQS,≥ 0.43
25,HMVLFDLSEREKEVLKLLADGNSYKMIASRLEITYFTVNAHLKKIYEKLQVHSASEAVSVALRNSL,-1.36
26,HMTEFFNMQDMFYFKLTGDVTSKERRQSLGKILGIGYGNAAQMVSRLNNYGITKEEFTNAINEIEKQMEAG,-0.511

row,Sequence,soluble fraction (log2)
1,HMDNPNVMAQVKSLLASKGLSEQEVKERLKAKGLNIDAMSDAEIAQNRSVIEQTIAELEAEKKKAG,0.287
2,HMIKISDYLSEEDLNFIKEMEKIYPYFDFDSEGNLILTKSIDELKDKYGFDEAFVSRLDTVLNSR,-0.243
3,HMSTRLIGEIGVVTKDLGAGLKENGSIQIGREEWPAETKDMEHIPMGTRVKVIHIEGTRLVVEA,-0.266
4,HMSLPAYIKISEVIARRINAGQILAGDRLPNERTMAVEFGVAVGTLRKALYHLQVRGLVTRKHGSGNYINK,0.249
5,HMKNNYQYIVDQIKQLILDGELIVGDRLPSERDLSEMYQVSRASVREALKALETIGLLESRHGGGNYIVNH,-0.68
6,HMGSRAEAKEFLQTMLADGRQLATDMEEARQAHDIADRTLRRARKELNVQVYRDGNAWYWELPTPIK,-0.567
7,HMRSEILNLLREKSPQPVSGQDLANHFGITRTAVWKHIQSLKKMGYGIEAYTKKGYVLVSVPN,0.175
8,HMLKKGDQVYIISGKDKGKLGVVSQIVSEERILVDGINLAKKHVKPNPNKNETGGVVEKEMPIHASNVMI,-0.702
9,HMKPVTNHTVKFYVDDVLWKTVTVKHGGNVRLADLPMSDGKTFVGWSESVVNVTKDLTVFALFS,-0.478
10,HMRRVRRTRRLLQDGLLGLMQHKAVADISVKELAEAADVARATVYVHFKDPADVLHQLEQGLY,-0.151
11,HMDFITPYEIEQGQYEGAELYEDGKFEEAFSLSSIAAQRGMKTAQYLLGIMFLKGEYVDQSLAIGMAW,-1.18
12,HMSTLSIHIPDKFAGQRLDQALAELYSQFSRSRLQQWLNDGELLVDGKSVKANKKVLGGEFIQILK,-0.00612
13,HMTMVVIMNADATQADIEGVISAIEEKGLEAKVMEGAHQKIVGVIGDKTKLAATPLDAMHGVETTVAIS,0.131
14,HMKFNLWLSEKLKKLGLTQRKLAEQAGVSPATVSRWLSGEFEPDLTNLRKINQVLGVPERELFLQLGL,-0.0282
15,HMDYEVPEELEEKFSENPQFKEAFDNLTPGRQHQYIYHISQAKRSQTRINRIEKYYEHILNGKGMQD,0.416
16,HMVLIQNEDVKDISNYPLLSSVPVFDVFNNKMIIPTFNKDSFNPLIYNFNFNSKRRLIYRVDNTNYLIVIK,-0.241
17,HMNITHEINVKSKSKIDFLENNKNLAQFFLTKNPNQFNYNLVFSDKSELNIIKEKIESHKDIEDIDIRYG,-1.11
18,HMDGLPYPEAAEEPIAQVARNLGMDATRVSIALQEAKLIFRNLDETLAEIAANNGTTPQVVYDAIRHLEPP,-0.372
19,HMGSQELIQLGERIRQKRKDSHLTQETFAEKAGISVNTVSRIEGGQAAMSIEIFAKLVEILDADANELLG,-1.07
20,HMFKMRVNGKEVIGMAITAKPQANPIDVADEIKKFVIDANTKLPSTMKLEVLYDATGIFRASISEVIS,-0.86
21,HMVDYYEILGVSPDASRKDIENAWRKKMREAHPDMGGSEDKAQLLNEAHKVLSDESARAEYDASR,-0.0915
22,HMTLGARTLAAIQSLPKVQQAVFTMKHFEGLKYREISQITGTSEGALKASYHIALEKIKAFLREK,-0.443
23,HMVAGHLQTKKGYYYIVLNMRTDTGARKTKWIATGIPEGGKKNLKQAEELLAKTRYTYEDMVI,0.0939
24,HMGVPELHKGEIVQAVVEKVLGEGLLRVNLKGMTVEAATSLRLNPGQQLLLRSEGIENGRQVLR,0.042
25,HMITASNYFIEVERIGIETLPETLKKGHDLVVKSTSNGTNWANYQTSEGIKKVIDLYFQKLNEYANTV,-1.57
26,HMATRAEQMAKTHQAILDTARELFLRNGYDATSTRDIANAIGITQPALYHHFKDKEVIFLAVI,0.101

row,Sequence,soluble fraction (log2)
1,HMGTISKRINPSGTTVYRAVIRIRKNGYPNFTESRTFSKKSMAAEWVKRREAEIELNPDILFG,-0.0195
2,HMIMTEKEKKLLNRYIMHDTIHKLYHEQNKSMRWIADNLGINFRTVQKYLDMDSGEFQKYSESISNR,-0.141
3,HMAPLATLEADGNGAVKLPNLAGHAIREVAAALGGANLALIPIGSGTSWKQNPAPGTILHKGDTVTVYF,-0.353
4,HMFMNFAEHLMALRKQRGWSQEELGSQIGVTRQTVSKWEMGQSTPELEKLVELSRLFGMSIDQLVGL,-0.00635
5,HMGVEKHLRITGTSTVSWKDAIVQAVAEASKTIDYLSNVKIIEQRARIDGKKLVEYFVDLDLSFVID,-0.38
6,HMSAPEGWMNRGDLRDNFRIQYPVTDRIIASYRESHPEWFGTYLSKTSKSLEYFHPDLVAKVREAAN,-0.145
7,HMLQKEVHQQIQQALRALPYHQRTAIVLYYYEGMSVKEIAQATGSMQGTVQSRLFFARKKLRPILESILKK,-2.39
8,HMDAPQRVTYLLPHSRGEVVSWLHRQGEVVAQEYEAEGVRVVVDLRYAQIRQAAKQFDVLPAEG,-0.656
9,HMDTIGSKVLAFLAGNLLDPTPFNYRFGYLYLNRTSKVIVEETDTYIDSGMRMTQEAVAEIMQKFAQ,-2.74
10,HMSKTQYTFREVGSQFELHAPSTNHKIMVDANHPKYGWLSSQEAGRVINVYESGKMTSSQDYYGLYKQS,-0.427
11,HMQKEMDIVLQINGKMRSNLKVSSTANDDEIIKTAIESDAYKKFSLGLRIQKTIIVPNRLINIVLEK,≥ 0.43
12,HMEGVSSESVKEMLKSIIDGEDPHNPVSDQRITDILNSRGINISRRTVAKYRDELGIASSSRRKRY,0.112
13,HMKKKLPRYLQEQKYGNGMVFYRYNPTARYIDEGIVTRTNLGSDLSIAKKKANEFNKLIDAFLQQQSE,-0.0245
14,HMTVEVFQSLVQTFREMSPRKAASILEELKRDLAVEILLHMPEDGVAAILARMDPARAARLTEQLALEKD,-0.867
15,HMESTLNYSQFLSLVNEDRVAEVVIQGKELYVTDVNRSRFKVYAPPDPELIGLLRQKRVIISAKP,0.203
16,HMKEYRKEGHLYFVTEDRNNEIYLWDFTDKPKHEFKEIITSVELQKVAKEGAMLQYKNGKYELYS,-0.0848
17,HMFKINNIIVSGLSEKSNLQTSEEIKNILFENIFFIKKDVLFKILEKNNLINSFEIKKIYPDTIEVKIKKT,-0.104
18,HMKSTPMYATAIVNIRSKAGTDSEILGKLNPSEEISVISSENGWSKVSYNGKEAYISSNYLSNAKP,0.22
19,HMISDEELLVSTKKEIMSLATVLTKTDKKDDAIAIMKEYDPAANPNRIKDVNKAKELLERLQKLG,-0.104
20,HMTKRTEPSILQNFDTEIAELIAKNRGISIMDALRIFLASKTHEMLENDEMKLWYFSPLAVFDMWENE,-0.61
21,HMSEYLDIHMAMEKLNRKEQLFVHLRFYEGLTQSEIAQRLFTSQVQISRLEKSVLEKMRQILSK,-0.91
22,HMFEDYLRMKGLSIVSFSKQTGIPISTLRNLNKIRYDKWKIRYLEELSNVLNKTIQEIIEELKNMG,-1.32
23,HMTKINAPMPGNILDVKVNVGDHVEANQLVLMLEAMKMENEIFTPVAGTVVGVHVKKGDSVNSDDLLISI,-1.09
24,HMNNLTEEAINHLVLEVKNVLLTDALFLGKATDSQLMLRIKETIDQRNGQYNIGMNDRERIARRVFARLR,≥ 0.43
